Assay [1] deals with recombinant angiotensin-converting enzyme 2 (ACE2) (UniProt Q9BYF1). Briefly: electrochemical impedance spectroscopy.
Assay [2] has the same target. Description: electrochemical impedance spectroscopy. This is another data set of the same source.

Here are results for 1 substance from paper PMC8018905.

Read-outs that look alike come from different tables or passages of the source.

Sequence of recombinant angiotensin-converting enzyme 2 (ACE2) (Q9BYF1 18-740): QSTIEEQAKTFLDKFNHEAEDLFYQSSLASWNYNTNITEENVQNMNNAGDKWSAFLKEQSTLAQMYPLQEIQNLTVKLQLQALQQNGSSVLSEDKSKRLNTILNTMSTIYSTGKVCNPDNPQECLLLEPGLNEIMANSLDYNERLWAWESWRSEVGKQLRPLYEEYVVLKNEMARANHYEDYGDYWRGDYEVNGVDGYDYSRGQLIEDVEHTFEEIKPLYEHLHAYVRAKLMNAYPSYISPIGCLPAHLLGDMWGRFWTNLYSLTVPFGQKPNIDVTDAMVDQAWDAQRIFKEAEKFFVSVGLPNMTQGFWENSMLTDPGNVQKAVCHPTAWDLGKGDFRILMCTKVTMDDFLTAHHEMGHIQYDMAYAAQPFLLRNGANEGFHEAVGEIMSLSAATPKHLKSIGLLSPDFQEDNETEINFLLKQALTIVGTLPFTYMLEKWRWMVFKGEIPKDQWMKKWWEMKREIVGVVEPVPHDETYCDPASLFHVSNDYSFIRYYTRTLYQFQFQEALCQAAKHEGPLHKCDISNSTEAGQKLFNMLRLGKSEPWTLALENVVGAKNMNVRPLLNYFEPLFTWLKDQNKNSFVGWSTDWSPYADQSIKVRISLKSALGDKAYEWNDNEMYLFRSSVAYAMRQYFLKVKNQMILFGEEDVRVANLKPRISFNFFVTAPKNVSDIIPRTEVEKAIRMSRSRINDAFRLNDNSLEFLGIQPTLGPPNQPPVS

Take “recombinant SARS-CoV-2 S-protein receptor-binding domain (from UniProt P0DTC2) (domain or fragment; other documents disagree on this pair)”: the 50% effective concentration (EC50) in assay [1] stood at 1.74 µM; in assay [2], 5.1 µM.
